From patent US20150166606A1 (RA PHARMACEUTICALS, published 2015)
Numbered stars: 1 amine (or outer) side, 2 acyl side, 3 side chain; on linkers, the order of the positions; unused ones are H or OH. Bridge positions count the residues as written; N and C are the ends. Square brackets hold non-standard residues; d marks the D form. Primed or numbered codes have the meaning given here. Ends that are not written are not given here. * marks the point of attachment. N‑ω hexylcarbamate = hexyl carbamate on the ω-nitrogen of the arginine side chain, CCCCCCOC(=O)*; mXylyl = xylyl linker from dibromoxylene joining the two cysteines; mXylyl″ = dibromoxylene linker (meta) joining the cysteines; 4‑BZA = 2-amino-3-(4-carbamimidoylphenyl)propanoic acid; des‑NH2 = missing amino-terminal amine group; pXylylene = c1cc(C[*:2])ccc1C[*:1]; NMeR = CN[C@@H](CCCNC(=N)N)C(=O)O; NMeI = CC[C@H](C)[C@H](NC)C(=O)O; BODIPY‑TMR = fluorescent label; Phg(2-OMe)′ = not defined here; dPhg = N[C@@H](C(=O)O)c1ccccc1; Chg = N[C@H](C(=O)O)C1CCCCC1; Phg = N[C@H](C(=O)O)c1ccccc1; Tle = CC(C)(C)[C@H](N)C(=O)O; αMeP = C[C@@]1(C(=O)O)CCCN1; NMeS = CN[C@@H](CO)C(=O)O; 2‑APY = not defined here; 3‑BZA = not defined here; Orn = NCCC[C@H](N)C(=O)O; Ac5c = NC1(C(=O)O)CCCC1; Aze = O=C(O)[C@@H]1CCN1; Thp = NC1(C(=O)O)CCOCC1; Ac4c = NC1(C(=O)O)CCC1; Ac3c = NC1(C(=O)O)CC1; Aib = CC(C)(N)C(=O)O; Mpa = O=C(O)CCS

B1: R2156 (peptide)
peptide: [Mpa]SICRV-NH2
modifications: linker 1-4 via pXylylene
SMILES: CC[C@H](C)[C@@H]1NC(=O)[C@H](CO)NC(=O)CCSCc2ccc(cc2)CSC[C@@H](C(=O)N[C@@H](CCCNC(=N)N)C(=O)N[C@H](C(N)=O)C(C)C)NC1=O
B2: R2171 (peptide)
peptide: CESICRV-NH2
modifications: linker 1-5 via mXylyl″; not fully specified (residues 1, 6, N-terminus); printed as [mXylyl(1,5)](des-NH2)C-ESIC-r-V-NH2
B3: R2179 (peptide)
peptide: [Mpa][Thp]A[Chg]C[3‑BZA]V-NH2
modifications: linker 1-5 via mXylyl; reading uncertain; also: printed as [mXylyl(1,5)](des-NH2)C-AcPyr-A-Chg-C-(3-BZA)-V-NH2
B4: R2198 (peptide)
peptide: [Mpa]P[Chg]C[2‑APY][Tle]-NH2
modifications: linker 1-4 via mXylyl; reading uncertain; also: printed as [mXylyl(1,4)](Des-NH2)C-P-Chg-C-(2-APY-Tbg-NH2)

The binders below were run against Activated human plasma kallikrein (Enzyme Research Laboratories, HPKa 1303) (human, UniProt P03952 20-638) (assay: cell-based or functional assay).
Activated human plasma kallikrein (Enzyme Research Laboratories, HPKa 1303), sequence (P03952 20-638 limits assumed): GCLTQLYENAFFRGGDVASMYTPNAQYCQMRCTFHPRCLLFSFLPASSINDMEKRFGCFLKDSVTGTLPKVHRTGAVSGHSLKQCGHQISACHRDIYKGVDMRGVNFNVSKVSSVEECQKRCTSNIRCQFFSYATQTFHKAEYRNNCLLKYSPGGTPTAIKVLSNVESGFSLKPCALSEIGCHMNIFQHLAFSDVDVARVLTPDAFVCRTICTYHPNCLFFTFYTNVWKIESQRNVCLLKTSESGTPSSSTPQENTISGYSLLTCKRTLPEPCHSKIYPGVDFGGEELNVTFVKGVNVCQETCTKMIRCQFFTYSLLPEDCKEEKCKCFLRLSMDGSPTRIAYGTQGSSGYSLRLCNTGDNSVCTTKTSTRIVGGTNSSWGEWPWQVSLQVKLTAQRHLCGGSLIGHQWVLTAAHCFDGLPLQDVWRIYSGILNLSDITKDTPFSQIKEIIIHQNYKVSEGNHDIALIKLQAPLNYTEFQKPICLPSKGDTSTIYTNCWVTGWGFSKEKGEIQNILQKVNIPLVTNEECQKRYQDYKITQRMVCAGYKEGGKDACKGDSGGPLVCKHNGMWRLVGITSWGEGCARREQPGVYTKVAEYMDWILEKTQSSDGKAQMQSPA

Row | Binder | Avg. IC50
1 | [Mpa][Aib]A[Chg]CR[Tle]LRYC-NH2 (linker 1-5-11 via 1,3,5‑Xylyl) [R2158] | 2340 nM
2 | {des‑NH2}-CE[Chg]CR[Tle]-NH2 (linker 1-4 via mXylyl) [R2201] | 7 nM
3 | [Mpa][Thp]A[Chg]C[4‑BZA](N‑hexylcarbamate)V-NH2 (linker 1-5 via mXylyl) [R2185] | > 100000 nM
4 | {des‑NH2}-CP[Chg]CR-OH (linker 1-4 via mXylyl) [R2195] | > 175000 nM
5 | Ac-[Chg]CRVPC-NH2 (linker 2-6 via mXylyl) [R2160] | > 100000 nM
6 | {des‑NH2}-CP[Chg]CR-{(S)‑2,2‑dimethyl‑1‑(pyridin-2-yl)propan‑1‑amine} (linker 1-4 via mXylyl) [R2196] | 35.6 nM
7 | [Mpa]SICRV-NH2 (linker 1-4 via mXylyl) [R2155] | 66.3 nM
8 | {des‑NH2}-CP[Phg(2-OMe)′]CR[Tle]-NH2 (linker 1-4 via mXylyl) [R2189] | 39.8 nM
9 | [Mpa][Aib][Chg]CR[Tle]-NH2 (linker 1-4 via mXylyl) [R2176] | 15.2 nM
10 | {des‑NH2}-C[NMeS][Chg]CR[Tle]-NH2 (linker 1-4 via mXylyl) [R2165] | 82.1 nM
11 | {des‑NH2}-CP[dPhg]CR[Tle]-NH2 (linker 1-4 via mXylyl) [R2187] | > 4700 nM
12 | {des‑NH2}-CP[Phg]CR[Tle]-NH2 (linker 1-4 via mXylyl) [R2188] | 3.4 nM
13 | {des‑NH2}-CP[Phg]CR[Tle]L-OH (linker 1-4 via mXylyl) [R2202] | 58.8 nM
14 | {des‑NH2}-CS[NMeI]CR[Tle]-NH2 (linker 1-4 via mXylyl) [R2204] | > 25000 nM
15 | [Mpa][Ac5c]A[Chg]CR[Tle]LRY-NH2 (linker 1-5 via mXylyl) [R2170] | 2.1 nM
16 | [Mpa][Aib]A[Chg]CR[Tle]LRYSE-NH2 (linker 1-5 via mXylyl) [R2190] | 0.511 nM
17 | {des‑NH2}-CP[Chg]CRV-NHMe (linker 1-4 via mXylyl) [R2184] | 15.7 nM
18 | [Mpa][Thp][Chg]CR[Tle]-NH2 (linker 1-4 via mXylyl) [R2182] | 13.5 nM
19 | [Mpa][Aze][Chg]CR[Tle]-NH2 (linker 1-4 via mXylyl) [R2194] | 127 nM
20 | {des‑NH2}-C[αMeP][dPhg]CR[Tle]-NH2 (linker 1-4 via mXylyl) [R2200] | 470 nM
21 | B1 | 1530 nM
22 | {des‑NH2}-CS[Chg]CR[Tle]-NH2 (linker 1-4 via mXylyl) [R2164] | 10.1 nM
23 | {des‑NH2}-CP[Chg]CR(N‑ω hexylcarbamate)[Tle]-NH2 (linker 1-4 via mXylyl) [R2186] | > 100000 nM
24 | [Mpa][Aib]A[Chg]CR[Tle]LRYSE(PEG 40 kDa)-NH2 (linker 1-5 via mXylyl) [R2191] | 5.5 nM
25 | Ac-[Chg]CRVAC-NH2 (linker 2-6 via mXylyl) [R2159] | > 20100 nM

Row | Binder | Avg. IC50
26 | [Mpa][Aib]A[Chg]CR-{2‑amino‑3,3‑dimethylbutan‑1‑ol} (linker 1-5 via mXylyl) [R2162] | 466 nM
27 | {des‑NH2}-CP[Chg]CRV-OH (linker 1-4 via mXylyl) [R2183] | > 3500 nM
28 | {des‑NH2}-C[αMeP][Chg]CR[Tle]-NH2 (linker 1-4 via mXylyl) [R2180] | 6.8 nM
29 | [Mpa]SICRV-NH2 (linker 1-4 via oXylyl) [R2161] | 2230 nM
30 | {BODIPY‑TMR}-MCESICRV-NH2 (linker 2-6 via mXylyl) [R2193] | 205 nM
31 | {des‑NH2}-C[αMeP][Phg]CR[Tle]-NH2 (linker 1-4 via mXylyl) [R2199] | 0.54 nM
32 | B2 | > 100000 nM
33 | [Mpa]ESIC[Orn]V-NH2 (linker 1-5 via mXylyl) [R2172] | > 100000 nM
34 | B3 | > 8230 nM
35 | [Mpa][Ac5c][Chg]CR[Tle]-NH2 (linker 1-4 via mXylyl) [R2168] | 11.3 nM
36 | [Mpa][Thp]A[Chg]C[4‑BZA]V-NH2 (linker 1-5 via mXylyl) [R2166] | 310 nM
37 | {des‑NH2}-CP[Chg]C[2‑amino‑4‑(6-aminopyridin-3-yl)butanoic acid]V-NH2 (linker 1-4 via mXylyl; not fully specified (residue 1)) [R2203] | > 10000 nM
38 | [Mpa][Ac5c]A[Chg]CRV-OH (linker 1-5 via mXylyl) [R2175] | 379 nM
39 | [Mpa][Ac3c][Chg]CR[Tle]-NH2 (linker 1-4 via mXylyl) [R2177] | 34.1 nM
40 | CXAGCRV ([mXylyl(1,5)](des-NH2)C-(Cyclo-L)-A-Chg-CR-V-NHCH3) [R2178] | 3.2 nM
41 | B4 | > 15000 nM
42 | {des‑NH2}-CP[Chg]CR-{2‑methyl‑1‑(4H-1,2,4-triazol-3-yl)propan‑1‑amine} (linker 1-4 via mXylyl) [R2197] | 56.9 nM
43 | {des‑NH2}-CP[αMePhg]CR[Tle]-NH2 (linker 1-4 via mXylyl) [R2192] | 851 nM
44 | [Mpa][Aib]A[Chg]CR[Tle]PC-NH2 (linker 1-5-9 via 1,3,5‑Xylyl) [R2157] | > 14300 nM
45 | {des‑NH2}-CP[Chg]CR[Tle]-NH2 (linker 1-4 via mXylyl) [R2167] | 10.7 nM
46 | [Mpa][Ac5c][Chg]CK[Tle]-NH2 (linker 1-4 via mXylyl) [R2174] | 870 nM
47 | MCESIC[NMeR]V-NH2 (linker 2-6 via mXylyl) [R2163] | 1960 nM
48 | [Mpa][Ac5c]A[Chg]CR[Tle]-NH2 (linker 1-5 via mXylyl) [R2169] | 1.9 nM
49 | [Mpa][Ac4c][Chg]CR[Tle]-NH2 (linker 1-4 via mXylyl) [R2181] | 18.5 nM
